Measurements taken from ChEMBL document CHEMBL1208712, “Synthesis and anti-HCV activity of 3',4'-oxetane nucleosides” (Bioorg Med Chem Lett, 2010).
Calls of active or inactive are those of the source. No cut-off for these calls is given here.

How the values were obtained:
[1] = biological target: T1, UMP-CMP kinase (Homo sapiens) (UniProt P30085); test: Activity at human recombinant UMP-CMP kinase
T1 sequence (whole entry): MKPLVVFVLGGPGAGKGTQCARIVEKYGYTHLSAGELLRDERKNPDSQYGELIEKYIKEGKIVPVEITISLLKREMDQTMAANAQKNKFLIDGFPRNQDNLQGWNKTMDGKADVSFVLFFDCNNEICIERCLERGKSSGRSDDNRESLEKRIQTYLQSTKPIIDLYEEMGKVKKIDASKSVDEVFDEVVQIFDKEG

[2] = test system: Nc1ccn([C@@H]2O[C@@]3(CO)CO[C@H]3[C@H]2F)c(=O)n1; test: (§1) Activity at human recombinant deoxycytidine kinase expressed in HepG2 cells; assay type: cell-based
[3] = test system: Nc1ccn([C@@H]2O[C@@]3(CO)CO[C@H]3[C@@H]2F)c(=O)n1; test: as §1; assay type: cell-based
[4] = test system: Nc1ccn([C@@H]2O[C@@]3(CO)CO[C@H]3C2(F)F)c(=O)n1; test: as §1; assay type: cell-based
[5] = test system: Nc1ccn([C@@H]2O[C@@]3(CO)CO[C@H]3[C@H]2F)c(=O)n1; test: (§2) Ratio of Kcat/Km for human recombinant deoxycytidine kinase
[6] = test system: Nc1ccn([C@@H]2O[C@@]3(CO)CO[C@H]3[C@@H]2F)c(=O)n1; test: as §2
[7] = test system: Nc1ccn([C@@H]2O[C@@]3(CO)CO[C@H]3C2(F)F)c(=O)n1; test: as §2

Sequence of Deoxycytidine kinase (Homo sapiens), P27707 (P27707 whole entry): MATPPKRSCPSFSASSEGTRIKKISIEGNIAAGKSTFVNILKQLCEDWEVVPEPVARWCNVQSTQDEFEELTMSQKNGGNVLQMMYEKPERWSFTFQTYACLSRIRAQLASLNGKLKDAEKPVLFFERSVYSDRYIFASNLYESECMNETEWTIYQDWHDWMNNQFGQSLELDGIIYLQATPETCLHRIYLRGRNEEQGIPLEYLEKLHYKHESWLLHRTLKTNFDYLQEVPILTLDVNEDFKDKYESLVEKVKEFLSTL

With `Nc1ccn([C@@H]2O[C@@]3(CO)CO[C@H]3C2(F)F)c(=O)n1` the Activity [1] was “inactive”.
`Nc1ccn([C@@H]2O[C@@]3(CO)CO[C@H]3[C@@H]2F)c(=O)n1` was tested, and the Activity [1] was “inactive”.
In the case of `Nc1ccn([C@@H]2O[C@@]3(CO)CO[C@H]3[C@H]2F)c(=O)n1`, the Activity [1] is reported as “inactive”.
“Deoxycytidine kinase (Homo sapiens), P27707” was tested, and the Km [2] was 61 µM, the kcat [2] was 0.0214 s⁻¹ and the Km [3] was 81.1 µM. The kcat [3] was 0.122 s⁻¹, the Km [4] was 27.6 µM and the kcat [4] was 0.0599 s⁻¹. It also gave a kcat/Km [5] of 3.5 ×10⁻⁴ /µM/s, a kcat/Km (10'-3/microM/s) [6] of 1.5 and a kcat/Km (10'-3/microM/s) [7] of 2.2.
